Common to all, as to assay: cells, lysate or membranes
Substrate in series [1]: C[N+](C)(C)CCO
To be noted: pH 7.4.

Substrate in series [2]: COC(=O)[C@H]1[C@@H](OC(=O)c2ccccc2)C[C@@H]2CC[C@H]1N2C
To be noted: pH 7.4.

Substrate in series [3]: CCCNC(C)C(=O)Nc1c(C)csc1C(=O)OC
To be noted: other: SLC35G3, HEK293, net uptake over empty vector cells; pH 7.4.

Substrate in series [4]: Clc1cccc(Cl)c1N=C1NCCN1
To be noted: other: SLC35G3, HEK293, net uptake over empty vector cells; pH 7.4.

Substrate in series [5]: CCOC(=O)C1(c2ccccc2)CCN(C)CC1
To be noted: other: SLC35G3, HEK293, net uptake over empty vector cells; pH 7.4.

Substrate in series [6]: CCCN1CCCC[C@H]1C(=O)Nc1c(C)cccc1C
To be noted: other: SLC35G3, HEK293, net uptake over empty vector cells; pH 7.4.

Substrate in series [7]: CNC(C)Cc1ccc2c(c1)OCO2
The following applies: other: SLC35G3, HEK293, net uptake over empty vector cells; pH 7.4.

Substrate in series [8]: c1cnc2cc3c(cc2n1)[C@@H]1CNC[C@H]3C1
To be noted: other: SLC35E2A, HEK293, net uptake over empty vector cells; pH 7.4.

Substrate in series [9]: COc1ccc2c3c1O[C@H]1C(=O)CC[C@@]4(O)[C@@H](C2)N(C)CC[C@]314
The following applies: pH 7.4.

The mark [10] stands for this setting: other: SLC35F5, HEK293, net uptake over empty vector cells.
Setting [11] is: other: SLC35F2, HEK293, net uptake over empty vector cells.
[12] abbreviates: other: SLC35F4, HEK293, net uptake over empty vector cells.
Where [13] appears, read: other: SLC35F3, HEK293, net uptake over empty vector cells.
[14] abbreviates: other: SLC35E4, HEK293, net uptake over empty vector cells.
[15] abbreviates: other: SLC35G4, HEK293, net uptake over empty vector cells.
Setting [16] is: other: SLC44A1, HEK293, net uptake over empty vector cells.

The term Vmax denotes the rate approached at saturating substrate.

B1: SLC35F5 (Homo sapiens) (protein)
chain: MVPPRRHRGAGRPGVLSSSPPFRLRSAKFSGIALEDLRRALKTRLQMVCVFVMNRMNSQNSGFTQRRRMALGIVILLLVDVIWVASSELTSYVFTQYNKPFFSTFAKTSMFVLYLLGFIIWKPWRQQCTRGLRGKHAAFFADAEGYFAACTTDTTMNSSLSEPLYVPVKFHDLPSEKPESTNIDTEKTPKKSRVRFSNIMEIRQLPSSHALEAKLSRMSYPVKEQESILKTVGKLTATQVAKISFFFCFVWFLANLSYQEALSDTQVAIVNILSSTSGLFTLILAAVFPSNSGDRFTLSKLLAVILSIGGVVLVNLAGSEKPAGRDTVGSIWSLAGAMLYAVYIVMIKRKVDREDKLDIPMFFGFVGLFNLLLLWPGFFLLHYTGFEDFEFPNKVVLMCIIINGLIGTVLSEFLWLWGCFLTSSLIGTLALSLTIPLSIIADMCMQKVQFSWLFFAGAIPVFFSFFIVTLLCHYNNWDPVMVGIRRIFAFICRKHRIQRVPEDSEQCESLISMHSVSQEDGAS
B1: in series [1] (setting [10]), the Km is 5.83 (±3.23) μM, the Vmax came out at 3.48e-05 µmol/min/mg and the Vmax/Km amounted to 5.97 µL/min/mg.

B2: SLC35F2 (Homo sapiens) (protein)
chain: MEADSPAGPGAPEPLAEGAAAEFSSLLRRIKGKLFTWNILKTIALGQMLSLCICGTAITSQYLAERYKVNTPMLQSFINYCLLFLIYTVMLAFRSGSDNLLVILKRKWWKYILLGLADVEANYVIVRAYQYTTLTSVQLLDCFGIPVLMALSWFILHARYRVIHFIAVAVCLLGVGTMVGADILAGREDNSGSDVLIGDILVLLGASLYAISNVCEEYIVKKLSRQEFLGMVGLFGTIISGIQLLIVEYKDIASIHWDWKIALLFVAFALCMFCLYSFMPLVIKVTSATSVNLGILTADLYSLFVGLFLFGYKFSGLYILSFTVIMVGFILYCSTPTRTAEPAESSVPPVTSIGIDNLGLKLEENLQETHSAVL
Turning to B2, in series [2], the Km is 161 (±99.5) μM, the maximal velocity (Vmax) came out at 0.000415 µmol/min/mg and the Vmax/Km turned out to be 2.58 µL/min/mg. In series [1] (setting [11]), the Km is on record as 32.6 (±14.9) μM, the Vmax worked out at 8.1e-05 µmol/min/mg and the Vmax/Km turned out to be 2.48 µL/min/mg.

B3: SLC35F4 (Homo sapiens) (protein)
chain: MDELLLDLFHKLTSGRQLAAGNGLCGISHKEQEVWKPGHNILVKMRKEDKSLVWLIHSTLARYTQVTNFLGTSRSSVTRCKPGANCPSSHSGISRQLSPLSVTEDSSAPILELQNQGSSGVCGHRVERQNRSADDGTQTHSENSSQENRIKARCLSCTSMVLKGIWGLLIILSVSSSWVGTTQIVKITYKNFYCPFFMTWFSTNWNIMFFPVYYSGHLATAQEKQSPMKKFRECSRIFGEDGLTLKLFLKRTAPFSILWTLTNYLYLLALKKLTATDVSALFCCNKAFVFLLSWIVLKDRFMGVRIVAAIMAITGIVMMAYADNFHADSIIGVAFAVGSASTSALYKVLFKMFLGSANFGEAAHFVSTLGFFNLIFISFTPVILYFTKVEHWSSFAALPWGCLCGMAGLWLAFNILVNVGVVLTYPILISIGTVLSVPGNAAVDLLKQEVIFNVVRLAATIIICIGFLLMLLPEEWDEITLRFINSLKEKKSEEHVDDVTDPSIHLRGRGRANGTVSIPLA
Turning to B3, in series [1] (setting [12]), the Km is reported as 47.4 (±48.1) μM, the Vmax is 6.28e-05 µmol/min/mg and the Vmax/Km worked out at 1.32 µL/min/mg.

B4: SLC35F3 (Homo sapiens) (protein)
chain: MKKHSARVAPLSACNSPVLTLTKVEGEERPRDSPGPAEAQAPAGVEAGGRASRRCWTCSRAQLKKIFWGVAVVLCVCSSWAGSTQLAKLTFRKFDAPFTLTWFATNWNFLFFPLYYVGHVCKSTEKQSVKQRYRECCRFFGDNGLTLKVFFTKAAPFGVLWTLTNYLYLHAIKKINTTDVSVLFCCNKAFVFLLSWIVLRDRFMGVRIVAAILAIAGIVMMTYADGFHSHSVIGIALVVASASMSALYKVLFKLLLGSAKFGEAALFLSILGVFNILFITCIPIILYFTKVEYWSSFDDIPWGNLCGFSVLLLTFNIVLNFGIAVTYPTLMSLGIVLSIPVNAVIDHYTSQIVFNGVRVIAIIIIGLGFLLLLLPEEWDVWLIKLLTRLKVRKKEEPAEGAADLSSGPQSKNRRARPSFAR
For the protein B4, in series [1] (setting [13]), the Km is 112 (±96.4) μM, the maximal velocity (Vmax) was 0.000135 µmol/min/mg and the Vmax/Km worked out at 1.21 µL/min/mg.

B5: SLC35E4 (Homo sapiens) (protein)
chain: MCRCPPEHHDGRMTSAEVGAAAGGAQAAGPPEWPPGSPQALRQPGRARVAMAALVWLLAGASMSSLNKWIFTVHGFGRPLLLSALHMLVAALACHRGARRPMPGGTRCRVLLLSLTFGTSMACGNVGLRAVPLDLAQLVTTTTPLFTLALSALLLGRRHHPLQLAAMGPLCLGAACSLAGEFRTPPTGCGFLLAATCLRGLKSVQQSALLQEERLDAVTLLYATSLPSFCLLAGAALVLEAGVAPPPTAGDSRLWACILLSCLLSVLYNLASFSLLALTSALTVHVLGNLTVVGNLILSRLLFGSRLSALSYVGIALTLSGMFLYHNCEFVASWAARRGLWRRDQPSKGL
As for B5, in series [1] (setting [14]), the Km was 245 (±331) μM, the Vmax is 4.19e-05 µmol/min/mg and the Vmax/Km is 0.17 µL/min/mg.

B6: SLC35G4 (Homo sapiens) (protein)
chain: MAGSHPYFNLPDSTHPSPPSTPPSLHWHQRCQPSDATNGLLVALLGGGLPAGFVGPLSRMAYQASNLPSLELVICRCLFHLPIALLLKLRGDPLLGPPDIRGRTCFCALLNVLNIGCAYSAVQVVPTGNAATVRKHSSTVCSAILTLCLESQVLSGYDWCGLLGSILGLIIIVGPGLWTLQEGTTGVYTGLGYVQAFLGGLALSLGLLVYRSLHFPSCLPTVAFLSGLVGLLGSVPGLFVLQSPVLPSDLLSWSCVGAVGILTLVSFTCVGYAVTKAHPALVCAVLHSEVVMALILQYFMLHETVAPSDIMGAGVVLGSIAIITARNLICERTGKVEE
As for B6, in series [1] (setting [15]), the Km is 13.2 (±7.02) μM, the Vmax was determined as 0.000108 µmol/min/mg and the Vmax/Km amounted to 8.15 µL/min/mg.

B7: SLC35G3 (Homo sapiens) (protein)
chain: MAGSHPYFNQPDSTHPSPPSAPPSLRWYQRCQPSDATSGLLVALLGGGLPAGFVGPLSRMAYQASNLPSLELLIWRCLFHLPIALLLKLRGDPLLGTPDIRSRAFFCALLNILSIGCAYSAVQVVPAGNAATVRKGSSTVCSAVLTLCLESQGLSGYDWCGLLGCILGLIIIVGPGLWTLQEGTTGVYTALGYVEAFLGGLALSLRLLVYRSLHFPPCLPTVAFLSGLVGLLGSVPGLFVLQAPVLPSDLLSWSCVGAVGILALVSFTCVGYAVTKAHPALVCAVLHSEVVVALILQYYMLHETVAPSDIVAAGVVLGSIAIITAQNLSCERTGRVEE
B7: the Km in series [3] is given as 143 (±119) μM; in series [4], 48.2 (±23.9) μM; in series [2] it was 466 (±117) μM; in series [5] it was 57.7 (±44.9) μM; in series [6], 151 (±60.7) μM; in [7], 141 (±50.4) μM. The Vmax in series [3] turned out to be 0.000291 µmol/min/mg; in series [4], 0.000234 µmol/min/mg; in series [2], 0.000739 µmol/min/mg; in [5], 0.000265 µmol/min/mg; in series [6], 0.000551 µmol/min/mg; in series [7] it was 0.000606 µmol/min/mg. Also, the Vmax/Km in [3] was 2.04 µL/min/mg; in [4] it was 4.85 µL/min/mg; in series [2], 1.59 µL/min/mg; in [5] it was 4.6 µL/min/mg; in series [6], 3.64 µL/min/mg; in [7] it was 4.31 µL/min/mg.

B8: SLC44A1 (Homo sapiens) (protein)
chain: MGCCSSASSAAQSSKREWKPLEDRSCTDIPWLLLFILFCIGMGFICGFSIATGAAARLVSGYDSYGNICGQKNTKLEAIPNSGMDHTQRKYVFFLDPCNLDLINRKIKSVALCVAACPRQELKTLSDVQKFAEINGSALCSYNLKPSEYTTSPKSSVLCPKLPVPASAPIPFFHRCAPVNISCYAKFAEALITFVSDNSVLHRLISGVMTSKEIILGLCLLSLVLSMILMVIIRYISRVLVWILTILVILGSLGGTGVLWWLYAKQRRSPKETVTPEQLQIAEDNLRALLIYAISATVFTVILFLIMLVMRKRVALTIALFHVAGKVFIHLPLLVFQPFWTFFALVLFWVYWIMTLLFLGTTGSPVQNEQGFVEFKISGPLQYMWWYHVVGLIWISEFILACQQMTVAGAVVTYYFTRDKRNLPFTPILASVNRLIRYHLGTVAKGSFIITLVKIPRMILMYIHSQLKGKENACARCVLKSCICCLWCLEKCLNYLNQNAYTATAINSTNFCTSAKDAFVILVENALRVATINTVGDFMLFLGKVLIVCSTGLAGIMLLNYQQDYTVWVLPLIIVCLFAFLVAHCFLSIYEMVVDVLFLCFAIDTKYNDGSPGREFYMDKVLMEFVENSRKAMKEAGKGGVADSRELKPMASGASSA
Regarding B8, in series [1] (setting [16]), the Km is given as 28.9 (±18.5) μM, the Vmax came to 6.01e-05 µmol/min/mg and the Vmax/Km was 2.08 µL/min/mg.

B9: SLC35E2A (Homo sapiens) (protein)
chain: MSSSVKTPALEELVPGSEEKPKGRSPLSWGSLFGHRSEKIVFAKSDGGTDENVLTVTITETTVIESDLGVWSSRALLYLTLWFFFSFCTLFLNKYILSLLGGEPSMLGAVQMLSTTVIGCVKTLVPCCLYQHKARLSYPPNFLMTMLFVGLMRFATVVLGLVSLKNVAVSFAETVKSSAPIFTVIMSRMILGEYTGRPSDREEREELQLQPGRGAAASDRRSPVPPSERHGVRPHGENLPGDFQVPQALHRVALSMALPCPMLPAS
In the case of B9, in series [8], the Km was 474 (±190) μM, the Vmax was 0.000847 µmol/min/mg and the Vmax/Km turned out to be 1.79 µL/min/mg. In [2], the Km was 165 (±47.7) μM, the Vmax worked out at 0.000683 µmol/min/mg and the Vmax/Km came out at 4.14 µL/min/mg. Also, in [9], the Km is listed as 92.0 (±31.0) μM, the Vmax came to 0.000317 µmol/min/mg and the Vmax/Km was determined as 3.44 µL/min/mg.

(Values after article PMC11406361, “Several orphan solute carriers functionally identified as organic cation transporters: Substrates specificity compared with known cation transporters” (The Journal of Biological Chemistry, 2024).)
